In publication PMC6602930:

Tests used:
[1] = biological target: Recombinant nucleoplasmin, full length (rNP) (X. laevis) (UniProt P05221); experiment: native gel or EMSA; NP alone on 4-16% native PAGE (Figs 2B and S3); pentamers to decamer
[2] = biological target: Histone H2A-H2B dimer, natural source (chicken erythrocyte chromatin) (chicken) (UniProt P02263); experiment: native gel or EMSA; 8% native PAGE run from the positive to the negative electrode; fixed histones (10 µM H2A-H2B or H3-H4 dimers, 2.5 µM octamer) with increasing tail domain, 150 mM NaCl, 20 mM Tris-HCl pH 7.6, RT, 1 h
[3] = biological target: Crosslinked histone octamer (dimethyl suberimidate) (not stated (chicken erythrocyte or recombinant histones)); experiment: as above
[4] = biological target: Alexa 488-labelled, crosslinked recombinant histone octamer (H2A, H2B T112C-Alexa 488, H3 C110A, H4 T71C) (UniProt P06897); experiment: other fluorescence titration; 5 nM Alexa 488-labelled octamer titrated with NP (pentamer concentration); 150 mM NaCl, 1 mM DTT, 0.1 mg/ml BSA, 20 mM Tris-HCl pH 7.5; ligand-depleted model with two pentamers per octamer; apparent

How did the stoichiometry N [1] turn out when “Recombinant nucleoplasmin, full length (rNP) (from UniProt P05221 1-200) (natural protein)” was run?
Its stoichiometry N is 10.

How did the stoichiometry N (tail domain/H2A-H2B dimer) [2] turn out when “Phosphomimetic C-terminal tail domain of nucleoplasmin (rNP113–200-4D) (from UniProt P05221 113-200) (domain or fragment)” was run?
Its stoichiometry N (tail domain/H2A-H2B dimer) is 1.

What about the stoichiometry N (C-terminal tails per crosslinked octamer) [3] of the same substance?
The stoichiometry N (C-terminal tails per crosslinked octamer) was 4.

Which Kd [4] does the source give for “Egg nucleoplasmin (eNP) from X. laevis, natural hyperphosphorylated pentamer (from UniProt P05221 1-200) (natural protein)” here?
The Kd was 0.04 nM.

“Recombinant nucleoplasmin lacking the last 50 residues (rNPΔ150–200) (from UniProt P05221 1-149) (domain or fragment)” was tested. Which Kd [4] did it give?
Its Kd is 0.27 nM.
